From article PMC5683647, “Comparison of histone-like HU protein DNA-binding properties and HU/IHF protein sequence alignment”

How the values were obtained:
[1] = test system: HU (Mycoplasma gallisepticum); test: EMSA; conditions: 20 mM Tris-HCl pH 8.0, 7% glycerol, 40 mM NaCl (dsDNA length series, 200 nM DNA, gel 50 mM Tris-borate) or 150 mM NaCl (distorted structures, 10.5 nM DNA, gel …)
[2] = test system: HU (Spiroplasma melliferum); test: EMSA; conditions: 20 mM Tris-HCl pH 8.0, 7% glycerol, 40 mM NaCl (dsDNA length series, 200 nM DNA, gel 50 mM Tris-borate) or 150 mM NaCl (distorted structures, 10.5 nM DNA, gel …)
[3] = molecular target: T1, HU (Neisseria gonorrhoeae, UniProt Q5F8J6 1-89); test: EMSA; conditions: 20 mM Tris-HCl pH 8.0, 7% glycerol, 40 mM NaCl (dsDNA length series, 200 nM DNA, gel 50 mM Tris-borate) or 150 mM NaCl (distorted structures, 10.5 nM DNA, gel …)
T1 sequence: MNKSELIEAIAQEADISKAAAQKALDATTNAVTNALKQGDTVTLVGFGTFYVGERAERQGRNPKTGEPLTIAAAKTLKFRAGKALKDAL

[4] = molecular target: T2, HU (Spiroplasma melliferum) (UniProt A0ABX5UAT3); test: EMSA; conditions: 20 mM Tris-HCl pH 8.0, 150 mM NaCl, 7% glycerol; 15 min; labelled DNA 10.5 nM; gel in 100 mM Tris-borate; temperature not stated; low values mean tight binding
T2 sequence: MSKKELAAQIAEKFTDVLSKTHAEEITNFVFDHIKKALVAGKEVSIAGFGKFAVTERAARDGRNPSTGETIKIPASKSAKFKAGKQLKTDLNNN

[5] = molecular target: T3, HU (Mycoplasma gallisepticum) (UniProt A0A0F6CKR5); test: EMSA; conditions: 20 mM Tris-HCl pH 8.0, 150 mM NaCl, 7% glycerol; 15 min; labelled DNA 10.5 nM; gel in 100 mM Tris-borate; temperature not stated; low values mean tight binding
T3 sequence: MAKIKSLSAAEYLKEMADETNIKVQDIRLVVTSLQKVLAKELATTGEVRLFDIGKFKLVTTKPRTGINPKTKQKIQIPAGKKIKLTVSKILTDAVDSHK

[6] = molecular target: T4, HU (Neisseria gonorrhoeae) (UniProt Q5F8J6); test: EMSA; conditions: 20 mM Tris-HCl pH 8.0, 150 mM NaCl, 7% glycerol; 15 min; labelled DNA 10.5 nM; gel in 100 mM Tris-borate; temperature not stated; low values mean tight binding
T4 sequence: T1 sequence

[7] = molecular target: T5, HU alpha (Escherichia coli) (UniProt P0ACF0); test: EMSA; conditions: 20 mM Tris-HCl pH 8.0, 150 mM NaCl, 7% glycerol; 15 min; labelled DNA 10.5 nM; gel in 100 mM Tris-borate; temperature not stated; low values mean tight binding
T5 sequence: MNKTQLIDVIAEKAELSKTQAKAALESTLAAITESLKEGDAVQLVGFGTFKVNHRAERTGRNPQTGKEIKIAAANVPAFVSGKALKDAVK

[8] = molecular target: T6, HU alpha (Escherichia coli, UniProt P0ACF0 1-90); test: EMSA; 20 mM Tris-HCl pH 8.0, 150 mM NaCl, 7% glycerol; 15 min; labelled DNA 10.5 nM; gel in 100 mM Tris-borate; temperature not stated; conditions: protein: recombinant, tags: N-terminal 6xHisTEV removed by TEV protease, chain copies: 2, label: 5'-HEX on strand 1
[9] = molecular target: HU (Mycoplasma gallisepticum, UniProt A0A0F6CKR5 1-99); test: as above; conditions: protein: recombinant, tags: N-terminal 6xHisTEV removed by TEV protease, chain copies: 2, label: 5'-HEX on strand 1
[10] = molecular target: T7, HU (Spiroplasma melliferum, UniProt A0ABX5UAT3 1-94); test: as above; conditions: protein: recombinant, tags: N-terminal 6xHisTEV removed by TEV protease, chain copies: 2, label: 5'-HEX on strand 1
T7 sequence: T2 sequence

[11] = molecular target: T1, HU; test: as above; conditions: protein: recombinant, tags: N-terminal 6xHisTEV removed by TEV protease, chain copies: 2, label: 5'-HEX on strand 1
[12] = molecular target: T1, HU; test: EMSA; 150 mM NaCl; 20 mM Tris-HCl pH 8.0, 7% glycerol, 40 mM NaCl (dsDNA length series, 200 nM DNA, gel 50 mM Tris-borate) or 150 mM NaCl (distorted structures, 10.5 nM DNA, gel 100 mM Tris-borate); 15 min, temperature not stated; conditions: protein: recombinant; tags: N-terminal 6xHisTEV removed by TEV protease; chain copies: 2; label: 5'-HEX on strand 1; four-way junction 1:2 2:3 3:4 4:1
[13] = molecular target: T1, HU; test: EMSA; 40 mM NaCl; 2 complexes; 20 mM Tris-HCl pH 8.0, 7% glycerol, 40 mM NaCl (dsDNA length series, 200 nM DNA, gel 50 mM Tris-borate) or 150 mM NaCl (distorted structures, 10.5 nM DNA, gel 100 mM Tris-borate); 15 min, temperature not stated; conditions: protein: recombinant; tags: N-terminal 6xHisTEV removed by TEV protease; chain copies: 2; label: 5'-HEX; blunt
[14] = molecular target: T6, HU alpha; test: EMSA; 40 mM NaCl; 20 mM Tris-HCl pH 8.0, 7% glycerol, 40 mM NaCl (dsDNA length series, 200 nM DNA, gel 50 mM Tris-borate) or 150 mM NaCl (distorted structures, 10.5 nM DNA, gel 100 mM Tris-borate); 15 min, temperature not stated; conditions: protein: recombinant; tags: N-terminal 6xHisTEV removed by TEV protease; chain copies: 2; label: 5'-HEX; blunt
[15] = molecular target: T6, HU alpha; test: EMSA; 40 mM NaCl; 3 complexes; 20 mM Tris-HCl pH 8.0, 7% glycerol, 40 mM NaCl (dsDNA length series, 200 nM DNA, gel 50 mM Tris-borate) or 150 mM NaCl (distorted structures, 10.5 nM DNA, gel 100 mM Tris-borate); 15 min, temperature not stated; conditions: protein: recombinant; tags: N-terminal 6xHisTEV removed by TEV protease; chain copies: 2; label: 5'-HEX; blunt
[16] = molecular target: T1, HU; test: EMSA; 40 mM NaCl; 4 complexes; 20 mM Tris-HCl pH 8.0, 7% glycerol, 40 mM NaCl (dsDNA length series, 200 nM DNA, gel 50 mM Tris-borate) or 150 mM NaCl (distorted structures, 10.5 nM DNA, gel 100 mM Tris-borate); 15 min, temperature not stated; conditions: protein: recombinant; tags: N-terminal 6xHisTEV removed by TEV protease; chain copies: 2; label: 5'-HEX; blunt
[17] = molecular target: T1, HU; test: EMSA; 40 mM NaCl; 3 complexes; 20 mM Tris-HCl pH 8.0, 7% glycerol, 40 mM NaCl (dsDNA length series, 200 nM DNA, gel 50 mM Tris-borate) or 150 mM NaCl (distorted structures, 10.5 nM DNA, gel 100 mM Tris-borate); 15 min, temperature not stated; conditions: protein: recombinant; tags: N-terminal 6xHisTEV removed by TEV protease; chain copies: 2; label: 5'-HEX; blunt
[18] = four-way junction 1:2 2:3 3:4 4:1
[19] = duplex with 1 unpaired A in strand 2
[20] = duplex with 3 unpaired A in strand 2
[21] = duplex with 7 unpaired A in strand 2

## AGTCTAGAGTGCAGTTGAGTCCTTGCTACGACGGATCCCTTAGGTCAG / CTGACCTAAGGGATCCGTCGTAGCAAGAGACTCAACTGCACTCTAGACT [bulge A1]
[1]
  Kd: 132 nM
[2]
  Kd: 35 nM

## DNA invasion (inv)
[1]
  binding signal (fold affinity vs nicked DNA): 20
[3]
  binding signal (fold affinity vs nicked DNA): 5

## AGTCTAGAGTGCAGTTGAGTCCTTGCTACGACGGATCCCTTAGGTCAG / CTGACCTAAGGGATCCGTCGTAGCAAGGGGCTGATACCGGAAGCTTCT / AGAAGCTTCCGGTATCAGCCTGAGCGGTGGTTGAATTCCT / AGGAATTCAACCACCGCTCAACTCAACTGCACTCTAGACT [four-way junction (J)]
[1]
  binding signal (fold affinity vs nicked DNA): 10

## AGTCTAGAGTGCAGTTGAGTCCTTGCTACGACGGATCCCTTAGGTCAG (double strand) [D48 dsDNA (ds)]
[4]
  Kd: 117 nM
[5]
  Kd: 440 nM
[6]
  Kd: 1100 nM
[7]
  Kd: 293 nM

B1: four-way junction (J) (structured_DNA)
DNA 1: AGTCTAGAGTGCAGTTGAGTCCTTGCTACGACGGATCCCTTAGGTCAG
DNA 2: CTGACCTAAGGGATCCGTCGTAGCAAGGGGCTGATACCGGAAGCTTCT
DNA 3: AGAAGCTTCCGGTATCAGCCTGAGCGGTGGTTGAATTCCT
DNA 4: AGGAATTCAACCACCGCTCAACTCAACTGCACTCTAGACT
[8]; [18]
  Kd: 44 ± 10 nM
[9]; [18]
  Kd: 26 ± 6 nM
[10]; [18]
  Kd: 35 ± 8 nM
[11]; [18]
  Kd: 110 ± 25 nM
[12]
  binding signal: 4 fold affinity vs nicked DNA

B2: D21 dsDNA (dsDNA)
DNA 1: AGTCTAGAGTGCAGTTGAGTC
DNA 2: GACTCAACTGCACTCTAGACT
[13]
  binding result: binds
[14]
  binding result: binds

B3: D29 dsDNA (dsDNA)
DNA 1: AGTCTAGAGTGCAGTTGAGTCCTTGCTAC
DNA 2: GTAGCAAGGACTCAACTGCACTCTAGACT
[15]
  binding result: binds

B4: D36 dsDNA (dsDNA)
DNA 1: AGTCTAGAGTGCAGTTGAGTCCTTGCTACGACGGAT
DNA 2: ATCCGTCGTAGCAAGGACTCAACTGCACTCTAGACT
[16]
  binding result: binds
[14]
  binding result: binds

B5: D27 dsDNA (dsDNA)
DNA 1: AGTCTAGAGTGCAGTTGAGTCCTTGCT
DNA 2: AGCAAGGACTCAACTGCACTCTAGACT
[17]
  binding result: binds

B6: bulge A1 (structured_DNA)
DNA 1: B1 DNA 1
DNA 2: CTGACCTAAGGGATCCGTCGTAGCAAGAGACTCAACTGCACTCTAGACT
[8]; [19]
  Kd: 88 ± 20 nM
[9]; [19]
  Kd: 132 ± 30 nM
[10]; [19]
  Kd: 35 ± 8 nM
[11]; [19]
  Kd: 440 ± 120 nM

B7: bulge A3 (structured_DNA)
DNA 1: B1 DNA 1
DNA 2: CTGACCTAAGGGATCCGTCGTAGCAAGAAAGACTCAACTGCACTCTAGACT
[8]; [20]
  Kd: 88 ± 20 nM
[9]; [20]
  Kd: 132 ± 30 nM
[10]; [20]
  Kd: 35 ± 8 nM
[11]; [20]
  Kd: 440 ± 120 nM

B8: nicked DNA (n) (structured_DNA)
DNA 1: B1 DNA 1
DNA 2: CTGACCTAAGGGATCCGTCGTAGCAAGG
DNA 3: ACTCAACTGCACTCTAGACT
[8]; nick 1:2 1:3
  Kd: 88 ± 20 nM
[9]; nick 1:2 1:3
  Kd: 264 ± 70 nM
[10]; nick 1:2 1:3
  Kd: 35 ± 8 nM
[11]; nick 1:2 1:3
  Kd: 440 ± 100 nM

B9: overhang (ov) (structured_DNA)
DNA 1: B1 DNA 1
DNA 2: ACTCAACTGCACTCTAGACT
[8]; 3' overhang 28 nt
  Kd: 50 ± 15 nM
[9]; 3' overhang 28 nt
  Kd: 30 ± 8 nM
[10]; 3' overhang 28 nt
  Kd: 45 ± 10 nM
[11]; 3' overhang 28 nt
  Kd: 120 ± 25 nM

B10: bulge A7 (structured_DNA)
DNA 1: B1 DNA 1
DNA 2: CTGACCTAAGGGATCCGTCGTAGCAAGAAAAAAAGACTCAACTGCACTCTAGACT
[8]; [21]
  Kd: 44 ± 10 nM
[9]; [21]
  Kd: 44 ± 12 nM
[10]; [21]
  Kd: 12 ± 4 nM
[11]; [21]
  Kd: 220 ± 60 nM
